These results are taken from the supplement of paper PMC9112550, “Optimization of the antimicrobial peptide Bac7 by deep mutational scanning” (BMC Biology, 2022).

The subject of the data set is Escherichia coli TOP10. Nature of the data set: shrunken log2 fold change of peptide-encoding DNA abundance (4.5 h post-induction vs induction); higher = less antimicrobial activity (less host growth inhibition). The note with it: time post-induction: 4.5 h; library: site-saturation at positions 5, 18, 19, 20.
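Also: peptides expressed intracellularly from a pBAD plasmid library in pooled LB shake-flask culture, induced with 0.3% L-arabinose, DNA abundance read by NGS, three biological replicates, DESeq2 with apeglm shrinkage.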

Turning to RRIRGRPPRLPRPRPRPSIGPRP, the “shrunken log2 fold change” value turned out to be 0.0763.

Consider RRIRIRPPRLPRPRPRPHWMPRP, for which the “shrunken log2 fold change” value was -1.57.

Consider RRIRTRPPRLPRPRPRPVSKPRP, for which the “shrunken log2 fold change” value was -0.096.

Consider RRIRVRPPRLPRPRPRPYNWPRP, for which the “shrunken log2 fold change” value is -0.603.

As to RRIRTRPPRLPRPRPRPLAVPRP, the “shrunken log2 fold change” value was -0.0185.

With RRIRHRPPRLPRPRPRPERQPRP, the “shrunken log2 fold change” value is -0.0882.

As to RRIRDRPPRLPRPRPRPYVDPRP, the “shrunken log2 fold change” value was -0.0902.

On to RRIRFRPPRLPRPRPRPRVYPRP, for which the “shrunken log2 fold change” value was -0.217.

As to RRIRVRPPRLPRPRPRPWQGPRP, the “shrunken log2 fold change” value turned out to be 0.0284.

RRIRMRPPRLPRPRPRPSELPRP: the “shrunken log2 fold change” value turned out to be 0.12.

As for RRIRYRPPRLPRPRPRPALLPRP, the “shrunken log2 fold change” value was -0.0984.

RRIRERPPRLPRPRPRPNRPPRP: the “shrunken log2 fold change” value was -0.123.

In the case of RRIRPRPPRLPRPRPRPHIEPRP, the “shrunken log2 fold change” value is -0.646.

As to RRIRNRPPRLPRPRPRPHVFPRP, the “shrunken log2 fold change” value is -0.151.

Turning to RRIRYRPPRLPRPRPRPLYSPRP, the “shrunken log2 fold change” value is -1.15.

With RRIRPRPPRLPRPRPRPEHHPRP, the “shrunken log2 fold change” value was -0.0616.

For RRIRSRPPRLPRPRPRPWTHPRP, the “shrunken log2 fold change” value is -0.373.

With RRIRDRPPRLPRPRPRPKANPRP, the “shrunken log2 fold change” value is 0.091.

Turning to RRIRDRPPRLPRPRPRPIQIPRP, the “shrunken log2 fold change” value was -0.384.

RRIRIRPPRLPRPRPRPYIYPRP: the “shrunken log2 fold change” value was -0.176.

On to RRIRKRPPRLPRPRPRPCWWPRP, for which the “shrunken log2 fold change” value stood at 0.284.

Regarding RRIRWRPPRLPRPRPRPIESPRP, the “shrunken log2 fold change” value came to 0.467.

For RRIRTRPPRLPRPRPRPNNMPRP, the “shrunken log2 fold change” value is -0.346.

With RRIRMRPPRLPRPRPRPPNNPRP, the “shrunken log2 fold change” value amounted to 0.436.

Take RRIRFRPPRLPRPRPRPSMKPRP: the “shrunken log2 fold change” value is -0.753.

RRIRTRPPRLPRPRPRPNCDPRP: the “shrunken log2 fold change” value was 1.31.

With RRIRVRPPRLPRPRPRPTDEPRP, the “shrunken log2 fold change” value is -0.148.

For the sequence RRIRGRPPRLPRPRPRPSMWPRP, the “shrunken log2 fold change” value was 0.291.

As to RRIRGRPPRLPRPRPRPFYAPRP, the “shrunken log2 fold change” value worked out at 0.0161.

With RRIRPRPPRLPRPRPRPYWEPRP, the “shrunken log2 fold change” value was -0.0429.

As to RRIRLRPPRLPRPRPRPTMVPRP, the “shrunken log2 fold change” value was -0.0972.

For the sequence RRIRHRPPRLPRPRPRPCVGPRP, the “shrunken log2 fold change” value came out at 0.116.

As to RRIRYRPPRLPRPRPRPRRHPRP, the “shrunken log2 fold change” value was -0.103.

As to RRIRYRPPRLPRPRPRPPKWPRP, the “shrunken log2 fold change” value came to 0.223.

For the sequence RRIRARPPRLPRPRPRPASGPRP, the “shrunken log2 fold change” value was found to be 1.35.

On to RRIRMRPPRLPRPRPRPVCFPRP, for which the “shrunken log2 fold change” value came out at 0.126.

As to RRIRHRPPRLPRPRPRPLFCPRP, the “shrunken log2 fold change” value is -0.604.

With RRIRFRPPRLPRPRPRPQDAPRP, the “shrunken log2 fold change” value is -0.0849.

RRIRARPPRLPRPRPRPVNMPRP: the “shrunken log2 fold change” value is -0.527.

Regarding RRIRHRPPRLPRPRPRPADQPRP, the “shrunken log2 fold change” value came to 0.0188.

For RRIRDRPPRLPRPRPRPNASPRP, the “shrunken log2 fold change” value was 0.527.

In the case of RRIRLRPPRLPRPRPRPNVHPRP, the “shrunken log2 fold change” value is -0.505.

On to RRIRHRPPRLPRPRPRPFCKPRP, for which the “shrunken log2 fold change” value is -0.571.

Regarding RRIRNRPPRLPRPRPRPIQIPRP, the “shrunken log2 fold change” value was -0.363.

Regarding RRIRRRPPRLPRPRPRPPTIPRP, the “shrunken log2 fold change” value stood at 0.324.

In the case of RRIRNRPPRLPRPRPRPGCTPRP, the “shrunken log2 fold change” value came to 0.0156.

Turning to RRIRKRPPRLPRPRPRPYYQPRP, the “shrunken log2 fold change” value was -0.194.

For the sequence RRIRRRPPRLPRPRPRPISVPRP, the “shrunken log2 fold change” value was -0.115.

For the sequence RRIRHRPPRLPRPRPRPYEKPRP, the “shrunken log2 fold change” value was -0.195.

Consider RRIRTRPPRLPRPRPRPCFKPRP, for which the “shrunken log2 fold change” value was -0.362.

On to RRIRIRPPRLPRPRPRPKWFPRP, for which the “shrunken log2 fold change” value was -0.69.

As to RRIRVRPPRLPRPRPRPNACPRP, the “shrunken log2 fold change” value came out at 0.215.

In the case of RRIRIRPPRLPRPRPRPCWSPRP, the “shrunken log2 fold change” value turned out to be 0.0832.

Consider RRIRGRPPRLPRPRPRPRWYPRP, for which the “shrunken log2 fold change” value came to 0.271.

Turning to RRIRQRPPRLPRPRPRPPHIPRP, the “shrunken log2 fold change” value was 0.213.

RRIRIRPPRLPRPRPRPCHIPRP: the “shrunken log2 fold change” value was -0.149.

RRIRQRPPRLPRPRPRPAPQPRP: the “shrunken log2 fold change” value came out at 0.522.

With RRIRCRPPRLPRPRPRPFLEPRP, the “shrunken log2 fold change” value is -0.472.

Turning to RRIRYRPPRLPRPRPRPIPHPRP, the “shrunken log2 fold change” value is 0.046.

With RRIRHRPPRLPRPRPRPVYEPRP, the “shrunken log2 fold change” value was 0.015.

Turning to RRIRQRPPRLPRPRPRPKTCPRP, the “shrunken log2 fold change” value is -0.0119.

As for RRIRDRPPRLPRPRPRPEKIPRP, the “shrunken log2 fold change” value is 0.652.

Turning to RRIRGRPPRLPRPRPRPDHSPRP, the “shrunken log2 fold change” value was -0.0179.

As to RRIRVRPPRLPRPRPRPNQGPRP, the “shrunken log2 fold change” value was -0.129.

For the sequence RRIRPRPPRLPRPRPRPDCHPRP, the “shrunken log2 fold change” value was -0.204.

Consider RRIRMRPPRLPRPRPRPQDTPRP, for which the “shrunken log2 fold change” value was -0.0435.

RRIRERPPRLPRPRPRPDKTPRP: the “shrunken log2 fold change” value was -0.0128.

In the case of RRIRDRPPRLPRPRPRPWIWPRP, the “shrunken log2 fold change” value came to 0.188.

On to RRIRCRPPRLPRPRPRPQYGPRP, for which the “shrunken log2 fold change” value was -0.142.

Consider RRIRGRPPRLPRPRPRPYYLPRP, for which the “shrunken log2 fold change” value was -0.791.

For RRIRCRPPRLPRPRPRPNWPPRP, the “shrunken log2 fold change” value stood at 0.0717.

On to RRIRKRPPRLPRPRPRPSIAPRP, for which the “shrunken log2 fold change” value was found to be 0.00111.

Turning to RRIRVRPPRLPRPRPRPAYVPRP, the “shrunken log2 fold change” value was -0.17.

In the case of RRIRRRPPRLPRPRPRPKQVPRP, the “shrunken log2 fold change” value stood at 0.351.

In the case of RRIRERPPRLPRPRPRPQGFPRP, the “shrunken log2 fold change” value is -0.144.

Take RRIRARPPRLPRPRPRPNALPRP: the “shrunken log2 fold change” value worked out at 0.296.

For the sequence RRIRQRPPRLPRPRPRPSCLPRP, the “shrunken log2 fold change” value was -0.0903.

Regarding RRIRQRPPRLPRPRPRPTMPPRP, the “shrunken log2 fold change” value was 0.2.

For RRIRERPPRLPRPRPRPQRCPRP, the “shrunken log2 fold change” value was -0.0721.

With RRIRFRPPRLPRPRPRPPEFPRP, the “shrunken log2 fold change” value came to 0.12.

Take RRIRARPPRLPRPRPRPGETPRP: the “shrunken log2 fold change” value was 0.238.

With RRIRGRPPRLPRPRPRPTRIPRP, the “shrunken log2 fold change” value stood at 0.901.

With RRIRRRPPRLPRPRPRPVLGPRP, the “shrunken log2 fold change” value turned out to be 0.528.

Consider RRIRERPPRLPRPRPRPWSHPRP, for which the “shrunken log2 fold change” value was -0.168.

Regarding RRIRYRPPRLPRPRPRPSFMPRP, the “shrunken log2 fold change” value is -0.759.

RRIRYRPPRLPRPRPRPNTVPRP: the “shrunken log2 fold change” value was -0.301.

On to RRIRHRPPRLPRPRPRPEHIPRP, for which the “shrunken log2 fold change” value was -0.142.

As to RRIRGRPPRLPRPRPRPDYRPRP, the “shrunken log2 fold change” value was found to be 0.127.

For RRIRIRPPRLPRPRPRPTPKPRP, the “shrunken log2 fold change” value is -0.0169.

Take RRIRCRPPRLPRPRPRPQLAPRP: the “shrunken log2 fold change” value is 0.163.

Consider RRIRRRPPRLPRPRPRPEQGPRP, for which the “shrunken log2 fold change” value was 0.0344.
